This note sets out measurements from patent US20060069055, “Delivery of polynucleotides” (published 2006).

B1: 153/154 PO/H11 (dsDNA)
DNA 1: AGTTGAGGACTTTCCAGGC
DNA 2: GCCTGGAAAGTCCTCAACT
modifications: strand 153 PO; strand 154 PS at the 11 most 3' linkages
B2: HIF decoy 819/820 double (dsDNA)
DNA 1: GAAATACGTGCGCTTTGTGTGTACGTGCAGGAA
DNA 2: TTCCTGCACGTACACACAAAGCGCACGTATTTC
B3: 153/154 H5/PO (dsDNA)
DNA 1: AGTTGAGGACTTTCCAGGC
DNA 2: GCCTGGAAAGTCCTCAACT
modifications: PS at the 5 most 3' linkages of strand 153, strand 154 PO
B4: 153/154 PO (dsDNA)
DNA 1: AGTTGAGGACTTTCCAGGC
DNA 2: GCCTGGAAAGTCCTCAACT
B5: HIF decoy 891/892 (dsDNA)
DNA 1: GGCTGCTGCATACGTGCAGGTC
DNA 2: GACCTGCACGTATGCAGCAGCC
B6: HIF decoy 879/880 (dsDNA)
DNA 1: GGCTGCTGCAGACGTGCAGGTC
DNA 2: GACCTGCACGTCTGCAGCAGCC
B7: HIF decoy 841/842 double (dsDNA)
DNA 1: AGCGGACGTGCAGAAGTTGCACGTCCTCT
DNA 2: AGAGGACGTGCAACTTCTGCACGTCCGCT
B8: HIF decoy 821/822 (dsDNA)
DNA 1: CGCGAGCGTACGTGCCTCAGG
DNA 2: CCTGAGGCACGTACGCTCGCG
B9: HIF decoy 887/888 (dsDNA)
DNA 1: GGCTGCACCGTACGTGCTGATC
DNA 2: GATCAGCACGTACGGTGCAGCC
B10: HIF decoy 869/870 (dsDNA)
DNA 1: AGCAGACGTGCAGGGT
DNA 2: ACCCTGCACGTCTGCT
B11: HIF decoy 853/854 (dsDNA)
DNA 1: TTGCTTACGTGCGCCCGG
DNA 2: CCGGGCGCACGTAAGCAA
B12: HIF decoy 851/852 (dsDNA)
DNA 1: CGGAGTACGTGACGGAGC
DNA 2: GCTCCGTCACGTACTCCG
B13: HIF decoy 871/872 (dsDNA)
DNA 1: ACCGTACGTGCTGCCA
DNA 2: TGGCAGCACGTACGGT
B14: HIF decoy 801/802 (dsDNA)
DNA 1: GCCCTACGTGCTGTCTCA
DNA 2: TGAGACAGCACGTAGGGC
B15: HIF decoy 845/846 (dsDNA)
DNA 1: GAGCGTACGTGCCTCAGG
DNA 2: CCTGAGGCACGTACGCTC
B16: HIF decoy 805/806 (dsDNA)
DNA 1: CCCCCTCGGACGTGACTCGGACCAC
DNA 2: GTGGTCCGAGTCACGTCCGAGGGGG
B17: HIF decoy 859/860 (dsDNA)
DNA 1: ACCGTACGTGCTGATC
DNA 2: GATCAGCACGTACGGT
B18: HIF decoy 843/844 (dsDNA)
DNA 1: GTGCATACGTGGGCTCCA
DNA 2: TGGAGCCCACGTATGCAC
B19: HIF decoy 855/856 (dsDNA)
DNA 1: GTGTGTACGTGCAGGAAA
DNA 2: TTTCCTGCACGTACACAC
B20: HIF decoy 849/850 (dsDNA)
DNA 1: GCCTACACGTGGGTTCCC
DNA 2: GGGAACCCACGTGTAGGC
B21: HIF decoy 865/866 (dsDNA)
DNA 1: AGCAGACGTGCAGGCA
DNA 2: TGCCTGCACGTCTGCT
B22: HIF decoy 863/864 (dsDNA)
DNA 1: AGCAGACGTGCAGGAT
DNA 2: ATCCTGCACGTCTGCT
B23: HIF decoy 873/874 (dsDNA)
DNA 1: TCCGTACGTGCTGCGT
DNA 2: ACGCAGCACGTACGGA

T2 sequence (Q16665 whole entry, chain 1 of 2): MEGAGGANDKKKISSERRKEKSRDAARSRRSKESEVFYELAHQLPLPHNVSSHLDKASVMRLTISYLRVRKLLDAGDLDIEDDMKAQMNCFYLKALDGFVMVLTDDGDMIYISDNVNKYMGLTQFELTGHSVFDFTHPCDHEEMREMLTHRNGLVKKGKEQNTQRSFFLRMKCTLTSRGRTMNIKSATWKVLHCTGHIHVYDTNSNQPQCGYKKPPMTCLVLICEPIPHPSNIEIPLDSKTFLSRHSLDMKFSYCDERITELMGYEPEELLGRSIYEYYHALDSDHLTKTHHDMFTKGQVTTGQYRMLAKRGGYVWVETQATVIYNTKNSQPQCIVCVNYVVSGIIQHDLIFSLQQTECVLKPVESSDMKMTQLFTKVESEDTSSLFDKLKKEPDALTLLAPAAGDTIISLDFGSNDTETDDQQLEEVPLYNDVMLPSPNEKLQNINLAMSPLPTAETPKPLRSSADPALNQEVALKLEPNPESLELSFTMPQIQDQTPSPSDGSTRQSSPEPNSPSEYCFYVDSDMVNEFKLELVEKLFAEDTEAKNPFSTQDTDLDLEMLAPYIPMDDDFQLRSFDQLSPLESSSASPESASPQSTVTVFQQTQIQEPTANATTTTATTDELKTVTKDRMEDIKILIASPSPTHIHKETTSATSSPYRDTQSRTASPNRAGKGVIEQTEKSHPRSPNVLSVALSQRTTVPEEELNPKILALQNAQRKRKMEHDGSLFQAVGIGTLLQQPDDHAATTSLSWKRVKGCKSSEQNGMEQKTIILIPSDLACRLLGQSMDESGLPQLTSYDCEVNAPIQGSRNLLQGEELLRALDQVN
T2 sequence (P27540 2-789, chain 2 of 2): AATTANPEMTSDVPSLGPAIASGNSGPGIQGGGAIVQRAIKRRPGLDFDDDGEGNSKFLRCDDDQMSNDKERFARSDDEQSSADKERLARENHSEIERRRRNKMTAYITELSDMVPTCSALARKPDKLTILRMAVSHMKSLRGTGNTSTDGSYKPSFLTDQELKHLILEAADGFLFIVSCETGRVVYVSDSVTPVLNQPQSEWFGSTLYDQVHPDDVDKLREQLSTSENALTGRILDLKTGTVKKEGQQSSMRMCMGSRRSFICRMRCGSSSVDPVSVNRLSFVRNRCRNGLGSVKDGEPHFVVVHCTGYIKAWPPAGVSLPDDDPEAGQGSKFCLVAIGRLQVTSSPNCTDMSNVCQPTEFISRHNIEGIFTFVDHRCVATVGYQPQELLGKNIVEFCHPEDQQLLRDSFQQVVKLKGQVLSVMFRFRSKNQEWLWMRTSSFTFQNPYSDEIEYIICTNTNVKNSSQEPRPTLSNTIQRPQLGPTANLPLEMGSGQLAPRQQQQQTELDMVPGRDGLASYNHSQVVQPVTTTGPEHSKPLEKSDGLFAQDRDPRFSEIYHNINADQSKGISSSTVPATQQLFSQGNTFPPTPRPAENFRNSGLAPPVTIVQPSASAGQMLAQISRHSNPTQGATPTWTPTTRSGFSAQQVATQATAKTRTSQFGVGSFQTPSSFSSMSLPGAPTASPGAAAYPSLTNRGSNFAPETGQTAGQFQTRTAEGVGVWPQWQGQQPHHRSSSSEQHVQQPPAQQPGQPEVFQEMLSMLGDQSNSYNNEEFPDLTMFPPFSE

One series deals with T1, NF-kB p50/p50 homodimer (Homo sapiens, UniProt P19838 P19838:1-433). In words: EMSA. To be noted: protein: extract; tags: nuclear extract of LPS-stimulated THP-1 cells; chain copies: 2 (stated). The text has this: (§1) The EMSA assay was employed to characterize oligonucleotide decoys for the NF-κB transcription factor. […] Using the above modified oligonucleotides to compete for binding for the above-mentioned NF-κB family members, it was possible to compare the binding affinity of these oligonucleotides against the high affinity radiolabeled probe and each other. This assay has also enabled the design of a decoy which selectively binds particular members of the NF-κB family. By using increasing concentrations of various oligonucleotides, it was observed that, by deleting or changing targeted residues in the binding site, it was possible to specifically decrease the binding of the decoy molecule to p50/p50 homodimers, while retaining the affinity for p65/p50 and cRel/p50 heterodimers.
T1 sequence (P19838 1-433, one chain of several): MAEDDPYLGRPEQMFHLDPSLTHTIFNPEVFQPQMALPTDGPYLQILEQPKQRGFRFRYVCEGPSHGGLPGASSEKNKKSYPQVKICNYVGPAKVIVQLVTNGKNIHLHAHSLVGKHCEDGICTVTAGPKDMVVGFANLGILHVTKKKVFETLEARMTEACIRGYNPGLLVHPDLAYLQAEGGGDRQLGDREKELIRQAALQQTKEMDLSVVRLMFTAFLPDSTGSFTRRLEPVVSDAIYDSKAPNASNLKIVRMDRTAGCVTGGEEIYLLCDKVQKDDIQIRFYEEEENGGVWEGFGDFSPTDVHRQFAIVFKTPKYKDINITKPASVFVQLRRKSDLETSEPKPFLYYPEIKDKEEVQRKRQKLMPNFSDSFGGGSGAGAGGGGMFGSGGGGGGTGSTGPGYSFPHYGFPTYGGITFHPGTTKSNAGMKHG
(§2) The NF-κB gel shift assays (EMSA) were performed as follows. A double-stranded oligonucleotide containing a consensus NF-κB binding site (5′ […].GGC 3′) (SEQ ID NO: 26) was end-labeled with γ³²P-ATP using T4 Polynucleotide Kinase (Promega). […] The dried gels were imaged and quantitated using a Typhoon 8600 Phosphorlmager (Amersham) and ImageQuant software. […]
Background: Mobility shift assays separate free from complexed probe on a gel.
In turn, B1 came in with an IC50 of 40 fold molar excess.

For another series, the target named is T2, HIF-1 complex (HIF-1alpha containing) (UniProt Q16665;P27540 Q16665:1-826,P27540:2-789). In words: competition; smaller is better competition; TransAM plate assay. The following applies: protein: extract; tags: nuclear extract, TransAM HIF-1 kit Active Motif 47096. Here is the method:
(§3) To assess the relative affinities of oligonucleotides for a HIF-1α containing complex, the HIF-1 TransAM assay (Active Motif, Catalog # 47096) was utilized. The assay was performed according to manufacturer's instructions. Briefly, a double-stranded oligonucletide containing the hypoxia response element (HRE) was immobilized on a 96-well plate. A nuclear extract containing HIF-1 alpha complexes was incubated and allowed to bind to the immobilized oligonucleotide. The unbound material was washed away and the bound HIF-1α detected using an antibody that specificially recognizes HIF-1α. The anti-HIF-1α antibody was detected by a secondary antibody labeled with horseradish peroxidase (HRP), and the amount of HRP in each well was measured using a colorimetric substrate reaction and read using a microplate spectrophotometer.
The ability of candidate decoy molecules to compete for binding of HIF-1α to the HRE element immobilized on the plate were measured and compared to reveal relative binding affinities. […] A well containing a competing decoy able to bind HIF-1α with high affinity would give a lower absorbance reading as compared to a decoy with low affinity for HIF-1α. […]
The screen was conducted using different decoy concentrations. For each UV absorbance reading, normalization was done by calculating the ratio of absorbance readings of sample vs. wild type control. […]
As for B2, the binding signal was 0.88 ratio to wild-type control absorbance.

The next series has as its target T1, NF-kB p50/p50 homodimer. Kind of series: EMSA; competition against labelled probe 113/114. To be noted: protein: extract; tags: nuclear extract of LPS-stimulated THP-1 cells; chain copies: 2 (stated).
Description: as §1, §2
Molecule B3 came in with an IC50 of 83 fold molar excess. B4 had an IC50 of 92 fold molar excess.

Another series concerns the target T2, HIF-1 complex (HIF-1alpha containing). Kind of series: competition. To be noted: protein: extract; tags: nuclear extract, TransAM HIF-1 kit Active Motif 47096. Here is the method:
as §3
(§4) The ability of candidate decoy molecules to compete for binding of HIF-1α to the HRE element immobilized on the plate were measured and compared to reveal relative binding affinities. Candidate decoys were added in increasing molar ratios (relative to the amount of oligo immobilized on the plate) to compete for binding to the HIF-1α containing complexes. […] A well containing a competing decoy able to bind HIF-1α with high affinity would give a lower absorbance reading as compared to a decoy with low affinity for HIF-1α. All potential decoys were then compared and ranked in order to assess their relative binding affinities.
(§5) The screen was conducted using different decoy concentrations. For each UV absorbance reading, normalization was done by calculating the ratio of absorbance readings of sample vs. wild type control. The bigger ratio represents less competition of binding with HIF-1α when compared with wild-type control. The smaller (smaller than 1.0 or close to 1.0) ratios represent better binding or better competition.
On to B5, for which the binding signal is 1.6 ratio to wild-type control absorbance. As for B6, the binding signal was 1.98 ratio to wild-type control absorbance. With B7, the binding signal is 0.95 ratio to wild-type control absorbance. Regarding B8, the binding signal was 1.26 ratio to wild-type control absorbance.

For B9, the binding signal is 1.94 ratio to wild-type control absorbance. Turning to B10, the binding signal is 1.93 ratio to wild-type control absorbance. The same measure, in the same setting: for B11 the value was 1.62 ratio to wild-type control absorbance; for B12, 1.08 ratio to wild-type control absorbance.

As to B13, the binding signal is 1.87 ratio to wild-type control absorbance. In the case of B14, the binding signal was 1.83 ratio to wild-type control absorbance. Regarding B15, the binding signal was 1.57 ratio to wild-type control absorbance. In the case of B16, the binding signal was 1.09 ratio to wild-type control absorbance. Consider B17, for which the binding signal is 1.85 ratio to wild-type control absorbance.

With B18, the binding signal was 1.81 ratio to wild-type control absorbance. Consider B19, for which the binding signal was 1.21 ratio to wild-type control absorbance. The same measure, in the same setting: the result for B20 reads 1.96 ratio to wild-type control absorbance.

The target is the same in another series. Kind of series: competition; TransAM; higher ratio = poorer competition; scramble 2.19. The following applies: protein: extract; tags: nuclear extract, TransAM HIF-1 kit Active Motif 47096. Here is the method:
as §3, §4, §5
On to B21, for which the binding signal was 2.01 ratio to wild-type control.

On to B22, for which the binding signal was 2.02 ratio to wild-type control. For B23, the binding signal was 2.04 ratio to wild-type control.
